The values that follow come from US20040005550A1, “Methods and compositions useful for targeting activated vitronectin receptor alphavbeta3” (The Scripps Research Institute, priority 1998, published 2004).

The target of assay [1] is T1, αvβ3 expressed in CHO cells (Homo sapiens, UniProt P05106+P06756).
T1 construct: cDNAs encoding full-length human αv and β3 were subcloned into pcDNA3 and pCDM8; expressed in transfected cells
Description: Flow cytometry ligand binding to αvβ3-CHO cells. The following applies: for Bmax: arbitrary fluorescence units. The method, then: Binding of aPB, WOW-1 Fab and FITC-fibrinogen to cells was assessed by flow cytometry. Typically, cells were cultured overnight in low serum medium (e.g., 0.5% fetal bovine serum), resuspended in incubation buffer at 1-1.5×10^7 cells/ml, and 4-6×10^5 cells were incubated with one of these ligands for 30 min at room temperature in a final volume of 50 μl. […] In some experiments, ligand binding and αvβ3 expression were measured simultaneously by incubation of cells with ligands in the presence of biotin-SSA6 (7 μg/ml), a non-function-blocking anti-β3 monoclonal antibody (Abrams, C., Deng, J., Steiner, B., and Shattil, S. J. (1994) J. Biol. Chem. 269, 18781-18788). After 30 min at room temperature, cells were washed and incubated with phycoerythrin-streptavidin (1:25 final dilution; Molecular Probes) for 20 min on ice. In the case of WOW-1 Fab, an Alexa-conjugated anti-(His)6 monoclonal antibody (Accurate Chemical and Scientific Corp., Westbury, N.Y.) was added at this stage (50 μg/ml). Cells were washed and resuspended in 0.5 ml incubation buffer containing 2 μg/ml propidium iodide (Sigma, St. Louis, Mo.). Ligand binding (FL1 channel) was analyzed immediately on the gated subset of live cells (propidium iodide-negative, FL3) that was strongly positive for αvβ3 expression (FL2). Binding isotherms were subjected to non-linear, least squares regression analysis using an equation for one-site binding (Prism 2.0 software; GraphPad Software, San Diego, Calif.). Two-tailed P values for paired samples were obtained by Student's t test.
In order to document and study the significance of affinity modulation of αvβ3, a monovalent reporter ligand was developed analogous to the activation-dependent anti-αIIbβ3 antibody, PAC1 Fab. Preliminary binding studies were conducted with the new antibody, designated WOW-1 Fab, using purified integrins in the presence of 50 μM MnCl2, which activates integrins by a direct effect on the extracellular domain (Bazzoni, G., and Hemler, M. E. (1998) Trends Biochem. Sci. 23, 30-34). […] To determine if WOW-1 Fab reacted preferentially with activated αvβ3 in cells, Fab binding was compared with that of multivalent penton base using CHO cells stably-transfected with human αvβ3 (αvβ3-CHO cells).

The next assay deals with αvβ3-CHO cells. Description: Cell adhesion assay on immobilized penton base. In kind it is cell-based. The method, then: Immulon-2 microtiter wells (Dynex Laboratories, Chantilly, Va.) were coated with unlabeled penton base (1-100 ng/well) overnight at 4° C., followed by blocking with 20 mg/ml BSA. CHO cells stably expressing αvβ3 were labeled with BCECF-AM (Molecular Probes, Eugene, Oreg.), and cell adhesion to the immobilized penton base was quantitated by cytofluorimetry at 485/530 nm (Hato, T., Pampori, N., and Shattil, S. J. (1998) J. Cell Biol. 141(7), 1685-1695).
In order to determine whether changes in receptor affinity affect the adhesive function of αvβ3, the adhesion of αvβ3-CHO cells to immobilized penton base was quantitated. Adhesion was dependent on the coating concentration of penton base and was half-maximal at 30-40 ng/well (FIG. 7). Activation of αvβ3 by AP5 led to a 7-fold leftward shift in the dose-response curve such that half-maximal adhesion now occurred at approximately 5 ng of penton base/well. Treatment of the cells with 1 mM MnCl2 caused an even further shift in the dose-response curve, either because it induced a more profound effect on αvβ3 or it activated additional αv integrins (FIG. 7). […] Thus, affinity modulation of αvβ3 promotes both cell adhesion and post-ligand binding responses, such as cell spreading.

Assay [2] deals with resting or thrombin-stimulated human platelets. Description: Flow cytometry ligand binding to platelets.

T1 sequence (P06756 31-889 limits assumed): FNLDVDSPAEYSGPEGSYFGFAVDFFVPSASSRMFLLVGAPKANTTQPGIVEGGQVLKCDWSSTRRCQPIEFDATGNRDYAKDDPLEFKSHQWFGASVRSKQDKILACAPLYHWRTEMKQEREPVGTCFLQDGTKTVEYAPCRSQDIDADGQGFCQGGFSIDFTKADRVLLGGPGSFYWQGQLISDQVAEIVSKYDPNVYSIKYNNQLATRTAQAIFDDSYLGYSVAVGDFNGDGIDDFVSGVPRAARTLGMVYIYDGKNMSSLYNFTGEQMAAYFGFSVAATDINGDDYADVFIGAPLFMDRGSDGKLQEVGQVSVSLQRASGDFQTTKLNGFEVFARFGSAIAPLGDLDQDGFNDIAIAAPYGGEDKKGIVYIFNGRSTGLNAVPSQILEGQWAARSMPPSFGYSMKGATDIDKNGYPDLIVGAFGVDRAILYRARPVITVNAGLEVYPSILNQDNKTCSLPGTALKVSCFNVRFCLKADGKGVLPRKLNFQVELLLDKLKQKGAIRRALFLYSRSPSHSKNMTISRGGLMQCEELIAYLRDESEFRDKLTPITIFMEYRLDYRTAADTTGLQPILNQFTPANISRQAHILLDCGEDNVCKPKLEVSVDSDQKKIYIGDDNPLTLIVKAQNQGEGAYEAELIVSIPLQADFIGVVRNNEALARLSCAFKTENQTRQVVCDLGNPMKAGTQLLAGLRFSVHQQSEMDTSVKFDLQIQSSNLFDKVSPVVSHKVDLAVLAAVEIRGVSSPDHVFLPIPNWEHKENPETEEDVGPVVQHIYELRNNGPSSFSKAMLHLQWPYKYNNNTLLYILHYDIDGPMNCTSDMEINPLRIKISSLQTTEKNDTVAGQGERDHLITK
T1 sequence (P06756 891-1048 partner limits assumed): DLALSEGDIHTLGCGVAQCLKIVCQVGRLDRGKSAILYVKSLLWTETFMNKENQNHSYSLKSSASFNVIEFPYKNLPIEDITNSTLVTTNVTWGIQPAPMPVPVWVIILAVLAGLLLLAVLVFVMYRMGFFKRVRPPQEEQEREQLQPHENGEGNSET
T1 sequence (P05106 27-788): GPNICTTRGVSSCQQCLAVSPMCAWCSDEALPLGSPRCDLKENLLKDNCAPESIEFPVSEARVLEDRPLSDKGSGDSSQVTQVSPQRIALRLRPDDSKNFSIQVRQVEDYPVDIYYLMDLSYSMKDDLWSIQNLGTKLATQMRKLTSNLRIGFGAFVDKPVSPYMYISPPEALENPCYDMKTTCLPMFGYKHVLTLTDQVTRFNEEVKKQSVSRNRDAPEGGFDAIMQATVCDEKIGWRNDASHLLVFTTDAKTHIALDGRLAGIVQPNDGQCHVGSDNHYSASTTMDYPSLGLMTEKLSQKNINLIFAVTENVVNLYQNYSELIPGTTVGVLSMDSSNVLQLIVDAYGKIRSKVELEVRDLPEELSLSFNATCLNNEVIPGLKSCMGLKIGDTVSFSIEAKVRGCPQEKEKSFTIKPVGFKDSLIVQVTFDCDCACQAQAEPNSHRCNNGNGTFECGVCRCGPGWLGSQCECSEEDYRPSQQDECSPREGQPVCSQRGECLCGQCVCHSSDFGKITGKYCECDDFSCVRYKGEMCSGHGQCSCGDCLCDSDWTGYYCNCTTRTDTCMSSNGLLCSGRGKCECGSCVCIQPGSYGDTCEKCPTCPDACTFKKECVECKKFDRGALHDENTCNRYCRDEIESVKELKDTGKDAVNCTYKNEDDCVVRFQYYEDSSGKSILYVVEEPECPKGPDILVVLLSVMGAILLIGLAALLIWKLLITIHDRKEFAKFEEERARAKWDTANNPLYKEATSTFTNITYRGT

“Fibrinogen: Purified human fibrinogen labeled with FITC”: the Bmax in assay [1] (Activating antibody AP5) is 77 ± 6 units; in assay [1] (No Treatment), 126 ± 74 units. For the same substance, the “affinity/avidity of αvβ3 for ligand, fold lower than that for aPB” value in assay [1] (unstimulated αvβ3-CHO cells) is “approximately 15 fold”.
As to “Penton Base: Recombinant multivalent penton base coat protein from adenovirus type 2, baculovirus-expressed”, the Bmax in assay [1] (Activating antibody AP5) is recorded as 69 ± 5 units; in assay [1] (No Treatment), 80 ± 4 units. Besides, the “coating concentration at half-maximal adhesion” value in the assay on αvβ3-CHO cells (no additive, 90 min at 37° C.) is recorded as 30-40 ng/well. In addition, the “coating amount at half-maximal adhesion” value in the assay on αvβ3-CHO cells (αvβ3 activated by AP5) is recorded as “approximately 5 ng of penton base/well”.
With “aPB: Penton base conjugated to Alexa-488”, the “aPB binding on a per receptor basis (mfi of aPB binding divided by mfi of SSA6 binding)” value in assay [1] (AP5-treated αvβ3-CHO cells, 75 nM aPB) stood at 0.034±0.002. In addition, in assay [2], the binding to platelets result was “neither aPB nor WOW-1 Fab bound detectably”.
